Test results as given in US20240287172A1 (SCIRHOM, published 2024).

T1: hiR2-FL-R582A-T7 (human, UniProt Q6PJF5 1-856)
T1 sequence: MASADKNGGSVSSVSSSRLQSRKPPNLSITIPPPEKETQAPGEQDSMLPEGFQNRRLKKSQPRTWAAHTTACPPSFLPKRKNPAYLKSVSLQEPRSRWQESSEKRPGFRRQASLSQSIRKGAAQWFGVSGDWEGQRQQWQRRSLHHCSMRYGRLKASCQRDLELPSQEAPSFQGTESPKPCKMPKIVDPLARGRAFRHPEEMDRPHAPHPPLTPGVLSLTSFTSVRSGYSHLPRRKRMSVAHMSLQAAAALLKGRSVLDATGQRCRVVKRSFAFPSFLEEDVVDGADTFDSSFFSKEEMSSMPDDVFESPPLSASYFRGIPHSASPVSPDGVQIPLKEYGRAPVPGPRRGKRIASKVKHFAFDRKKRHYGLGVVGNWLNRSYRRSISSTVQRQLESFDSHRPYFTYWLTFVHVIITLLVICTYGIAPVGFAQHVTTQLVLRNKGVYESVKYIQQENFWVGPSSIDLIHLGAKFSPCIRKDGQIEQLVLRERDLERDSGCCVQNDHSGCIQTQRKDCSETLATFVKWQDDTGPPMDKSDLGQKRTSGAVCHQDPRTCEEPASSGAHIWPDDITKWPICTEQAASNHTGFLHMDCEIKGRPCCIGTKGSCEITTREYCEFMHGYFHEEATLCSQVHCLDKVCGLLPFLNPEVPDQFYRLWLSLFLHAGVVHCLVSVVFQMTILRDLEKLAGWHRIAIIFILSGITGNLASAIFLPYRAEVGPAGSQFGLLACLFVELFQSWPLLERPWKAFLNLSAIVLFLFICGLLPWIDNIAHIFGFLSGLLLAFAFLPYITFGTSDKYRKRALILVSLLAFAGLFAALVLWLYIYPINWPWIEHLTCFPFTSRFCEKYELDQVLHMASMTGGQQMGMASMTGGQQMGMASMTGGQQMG

T2: hiR2-FL-C593A-T7 (human, UniProt Q6PJF5 1-856)
T2 construct: reduced surface expression reported
T2 sequence: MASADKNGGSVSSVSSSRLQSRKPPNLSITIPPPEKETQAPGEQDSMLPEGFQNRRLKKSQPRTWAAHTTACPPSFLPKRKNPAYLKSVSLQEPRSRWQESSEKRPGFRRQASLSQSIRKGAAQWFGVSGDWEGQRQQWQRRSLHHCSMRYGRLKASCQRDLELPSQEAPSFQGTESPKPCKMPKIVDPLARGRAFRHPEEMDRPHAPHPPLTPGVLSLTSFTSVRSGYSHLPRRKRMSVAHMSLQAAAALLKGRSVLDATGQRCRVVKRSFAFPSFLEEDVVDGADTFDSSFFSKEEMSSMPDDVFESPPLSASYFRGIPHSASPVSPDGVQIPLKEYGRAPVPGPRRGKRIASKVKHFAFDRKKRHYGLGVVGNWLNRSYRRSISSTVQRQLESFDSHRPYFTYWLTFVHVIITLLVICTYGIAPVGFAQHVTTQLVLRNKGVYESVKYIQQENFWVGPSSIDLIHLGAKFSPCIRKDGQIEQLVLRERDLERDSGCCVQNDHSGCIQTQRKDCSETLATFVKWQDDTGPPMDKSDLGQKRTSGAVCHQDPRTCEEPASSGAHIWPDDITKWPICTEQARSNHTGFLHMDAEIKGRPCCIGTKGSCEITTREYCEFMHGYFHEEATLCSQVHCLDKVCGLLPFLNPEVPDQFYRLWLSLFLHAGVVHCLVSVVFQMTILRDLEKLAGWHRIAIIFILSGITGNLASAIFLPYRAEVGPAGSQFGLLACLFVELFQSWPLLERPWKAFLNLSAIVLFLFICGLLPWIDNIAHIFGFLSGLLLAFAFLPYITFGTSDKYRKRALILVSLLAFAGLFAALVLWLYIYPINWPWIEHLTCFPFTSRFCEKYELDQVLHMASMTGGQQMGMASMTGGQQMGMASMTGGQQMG


Legend:
hiR2-FL-R582A-T7 = molecular target: T1, hiR2-FL-R582A-T7; test: FACS on MEF-DKO cells expressing the variant, 3 µg/ml antibody
Procedure, shortened: (§1)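 Cells were stained with purified antibody at 3 μg/ml in FACS buffer for 1 hour on ice, with buffer-only controls. Bound antibody was detected with PE-conjugated goat anti-mouse IgG F(ab′)2 at 1:100, 1 hour on ice in the dark, followed by flow cytometry.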

hiR2-FL-C593A-T7 = molecular target: T2, hiR2-FL-C593A-T7; test: as above
Procedure, shortened: as §1

| Binder | loss of binding vs wild type (hiR2-FL-R582A-T7) | loss of binding vs wild type (hiR2-FL-C593A-T7) |
| --- | --- | --- |
| antibody 3 (antibody, V domains shown, mouse IgG, kappa light chain; also called clone #3; purified antibody 3) VH: QVTLKESGPGILQPSQTLSLTCSFSGFSLTTFAMGIGWVRQPSGKGLEWLAHIWWDGEKYNNPVLKSRLTISKDTSKNQVFLRIANVDTPDTATYYCARISSIYYIIDNWGQGTSVTVSS VL: DIVLTQSPATLSVTPGHSVSLSCRASQSISNNLHWYQKKSHESPRLLIKYVSQSISGIPSRFSGSGSGTDFTLSINSVETEDFGMYFCQQSYNWPLTFGAGTKLELK | ≥ 30% |  |
| antibody 50 (antibody, V domains shown, mouse IgG, kappa light chain; also called clone #50; purified antibody 50) VH: QVQLQQSGAELVRPGASVKVSCKASGYAFSNYLIEWVKQRPGQGLEWIGVINPGSGFTKYNEKFKGKATLTADKSSSTAYMQLSSLTSEDSAVYFCARGLYRAMDYWGQGTSVTVSS VL: DIQMTQSPASQSASLGESVTITCLASQTIGTWLAWYQQKPGKSPQLLIYAAASLADGVPSRFSGGGSGTKFSFKISSLQAEDFVNYYCQQIYSTPYTFGGGTKLEIK |  | ≥ 30% |
